Measured values taken from US20200095340A1.
Changes are numbered by the printed parent chain.

B1: anti-DLL3 trispecific protein containing 4H011 (protein, part only; not given: CD3 binder and albumin binder, part only)
chain, part: EVQLVESGGGLVQPGGSLTLSCAASGSSVSRLSMAWYRQAPGKKRELVAGISVDGSTDYIDSVKGRFTISRDNAKNSVYLQMNSLRAEDTAVYYCYAYRWTTRLTYWGQGTLVTVSSGGGGSGGGSGGGGSGGGSHHHHHH
B2: anti-DLL3 trispecific protein containing 4A010 (protein, part only; not given: anti-CD3 and anti-albumin domains, part only)
chain, part: B1 chain, part with S30R, R31F, V53A, D58V, L104Y, T105K
B3: anti-DLL3 trispecific protein containing 4H05 (protein, part only; not given: CD3 binder and albumin binder, part only)
chain, part: B1 chain, part with V53A, D54R, L104S

Legend:
[1] = target: human DLL3 on DLL3 expressing cancer cell lines (human) (UniProt Q9NYJ7); test: cell-based or functional assay
Sequence of human DLL3 on DLL3 expressing cancer cell lines (human) (Q9NYJ7 27-618 limits assumed): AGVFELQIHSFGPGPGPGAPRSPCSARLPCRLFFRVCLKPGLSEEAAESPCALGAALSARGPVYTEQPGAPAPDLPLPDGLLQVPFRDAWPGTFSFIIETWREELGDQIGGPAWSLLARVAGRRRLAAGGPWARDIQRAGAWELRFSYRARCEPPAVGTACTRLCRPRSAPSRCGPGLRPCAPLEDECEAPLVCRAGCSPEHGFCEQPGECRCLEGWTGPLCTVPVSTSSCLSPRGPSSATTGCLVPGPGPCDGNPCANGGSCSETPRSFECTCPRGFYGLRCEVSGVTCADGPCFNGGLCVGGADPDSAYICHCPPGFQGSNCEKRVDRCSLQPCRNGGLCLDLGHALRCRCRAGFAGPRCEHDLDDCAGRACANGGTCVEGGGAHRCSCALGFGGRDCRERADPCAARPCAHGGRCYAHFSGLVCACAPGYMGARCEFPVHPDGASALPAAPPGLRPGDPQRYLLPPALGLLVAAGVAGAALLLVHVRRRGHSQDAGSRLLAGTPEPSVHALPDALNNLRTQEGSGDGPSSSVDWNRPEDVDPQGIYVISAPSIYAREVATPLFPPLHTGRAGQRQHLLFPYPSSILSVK

[2] = target: biotinylated version of human DLL3 protein expressed as a human IgG1 fusion protein (human) (UniProt Q9NYJ7); test: Octet BLI, biotinylated DLL3-IgG1 on streptavidin tips, single 50 nM
Sequence of biotinylated version of human DLL3 protein expressed as a human IgG1 fusion protein (human) (Q9NYJ7 27-492 limits assumed): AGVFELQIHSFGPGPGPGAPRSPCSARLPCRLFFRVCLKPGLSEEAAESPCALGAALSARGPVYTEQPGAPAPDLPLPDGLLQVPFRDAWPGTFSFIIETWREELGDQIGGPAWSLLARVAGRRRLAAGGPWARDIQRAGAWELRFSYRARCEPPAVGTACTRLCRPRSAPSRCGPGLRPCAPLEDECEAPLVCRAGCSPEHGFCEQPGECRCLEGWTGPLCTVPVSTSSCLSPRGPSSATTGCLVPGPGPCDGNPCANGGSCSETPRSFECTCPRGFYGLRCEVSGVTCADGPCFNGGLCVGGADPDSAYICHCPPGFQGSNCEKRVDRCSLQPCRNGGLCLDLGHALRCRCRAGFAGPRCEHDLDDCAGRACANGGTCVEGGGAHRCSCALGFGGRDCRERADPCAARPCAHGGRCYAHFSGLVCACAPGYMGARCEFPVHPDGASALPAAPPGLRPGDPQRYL

Binder	TDCC EC50, DMS-153 cells [1] [nM]	fold increase in TDCC potency over DH6 [1] [fold]	Kd [2] [nM]
B1	36	> 8	
B2			2.3
B3			64
